This is an account of results in patent US11242370B2, “Neuregulin-4 compounds and methods of use” (Eli Lilly and Company, priority 2019, dated 2022).

Marks after values point to notes of the source that are not given here.

The target of series [1] is T1, rat HER2/HER4 (Rattus norvegicus, UniProt Q62956).
T1 construct: expressed in transfected cells
In words: Rat HER2/HER4 phospho-ERK 1/2 assay, purified proteins, CHO-K1 cells. It is filed as cell-based. Particulars: for % Maximal NRG1 activity: maximal signal relative to native human NRG1 per plate; for EC50: purified proteins, phospho-ERK1/2. As to the method: (§1) A cell based assay utilizing CHO-K1 cells overexpressing human or rat HER receptors is used to determine activity of NRG4 compounds. CHO-K1 cells (ATCC) are grown in DMEM-F12 3:1 with 5% FBS with 20 mM HEPES, 40 μg/mL L-Proline, lx antibiotics and were split 1:5 every 2-3 days with TripLE Express (Gibco). Cells are transfected with plasmid DNA encoding HER receptors in pairs (hHER2-3, hHER2-4, rHER2-3 and rHER2-4) with Fugene 6 (Promega) according to the manufacturer's instructions. […] Transfected cells are selected with Puromycin (12 ug/ml) and Hygromycin (1 mg/ml) for 3-4 weeks and clonal lines are obtained by limited dilution cloning into 96 well plates. Clonal lines are selected by appropriate gene expression of HER2, HER3 or HER4 by Taqman method. Lines with appropriate receptor expression are confirmed by NRG1 induced phospho-ERK 1/2 responses. Clones are grown up, harvested, aliquoted into cryovials and then frozen under liquid nitrogen for long-term storage.
A phospho-ERK1/2 activity assay is utilized with CHO-K1 cells overexpressing human or rat HER receptors to determine potencies and selectivity of purified NRG4 compounds. CHO-K1 cell lines expressing the human or rat HER receptors are cultured with selection medium (DMEM-F12 3:1 with 5% FBS with 20 mM HEPES, 40 μg/mL L-Proline, 1× antibiotics, 12 μg/mL puromycin, 1 mg/mL Hygromycin B). On Day −1 (the day before phospho-ERK1/2 assay), cells are washed once with PBS, detached with enzyme free cell dissociation solution (GIBCO cat #13151-014), and resuspended in plating medium (DMEM-F12 3:1 with 20 mM HEPES, lx antibiotics, 0.2% FBS). Cells are plated in a 96-well Poly-D-Lysine coated plate (BD cat #354640) at 10,000 cells per 0.1 mL per well. Cells are cultured in a tissue culture incubator at 37° C. 5% CO2 overnight. On Day 1 (the day of pERK1/2 assay), plates are incubated at room temperature for 30 min. The culture media are removed followed by addition of 504, ligand at various concentrations diluted in PBS-20 mM HEPES-0.005% BSA. Native human NRG1 and NRG4 peptides are purchased from Reprokine (Tampa, Fla.). The stimulation time is 30 min (except for hHER2-4 1H6 line in which 15 min is used for stimulation). At the end of stimulation, ligands are removed and 704, Lysis buffer (made according to manufacturer's recipe, Perkin Elmer cat #ALSU-PERK-A10K) is added. Plates are incubated at room temperature for 10 min on plate shaker with 350 rpm agitation, then on ice for 1 hour without shaking. 304, of cell lysis is transferred to a 96-well white Optiplate (Perkin Elmer cat #6002290) for phospho-ERK1/2 assay. Briefly 7.5 μL acceptor beads are added to 30 μL lysis in Optiplate. The plate is covered with aluminum foil and incubated at room temperature for 1 hour on plate shaker with 350 rpm agitation. Then 7.5 μL donor beads are added and the plate is covered with aluminum foil and incubated at room temperature for 2 hours on plate shaker with 350 rpm agitation or at 4° C. for overnight (warm up plate at room temperature for 2 h before reading). Alpha signal data are obtained on an Envision instrument (Alpha Technology-compatible plate reader). Donor beads and acceptor beads are made according to assay protocol. The data shown are generated with either the AlphaScreen SureFire p-ERK1/2 (Thr202/Tyr204) assay kit (Cat #TGRES50k) or the AlphaLISA® SureFire® Ultra™ p-ERK 1/2 (Thr202/Tyr204) assay kit (Perkin Elmer cat #ALSU-PERK-A10K). The activity of the NRG1 peptide was similar in both types of assays. Raw data obtained from the Envision instrument is imported into GraphPad Prism software (version 7). The EC50 value is generated by a variable slope-four parameter dose response curve. The % of maximal NRG1 activity data are generated by expressing the average maximal raw data for the NRG4 compound over the average maximal raw data for the native human NRG1 per plate and multiplying by 100. Data are provided below in Tables 7-9. N values reflect number of independent assays run. […]

Series [2] concerns the target T2, rat HER2/HER3 (Rattus norvegicus, UniProt Q62799).
T2 construct: expressed in transfected cells
In words: Rat HER2/HER3 phospho-ERK 1/2 assay, purified proteins, CHO-K1 cells. It is filed as cell-based. The settings on record: phospho-ERK1/2. The method, then: as §1
A phospho-ERK1/2 activity assay is utilized with CHO-K1 cells overexpressing human or rat HER receptors to determine potencies and selectivity of purified NRG4 compounds. CHO-K1 cell lines expressing the human or rat HER receptors are cultured with selection medium (DMEM-F12 3:1 with 5% FBS with 20 mM HEPES, 40 μg/mL L-Proline, 1× antibiotics, 12 μg/mL puromycin, 1 mg/mL Hygromycin B). On Day −1 (the day before phospho-ERK1/2 assay), cells are washed once with PBS, detached with enzyme free cell dissociation solution (GIBCO cat #13151-014), and resuspended in plating medium (DMEM-F12 3:1 with 20 mM HEPES, lx antibiotics, 0.2% FBS). Cells are plated in a 96-well Poly-D-Lysine coated plate (BD cat #354640) at 10,000 cells per 0.1 mL per well. […] Then 7.5 μL donor beads are added and the plate is covered with aluminum foil and incubated at room temperature for 2 hours on plate shaker with 350 rpm agitation or at 4° C. for overnight (warm up plate at room temperature for 2 h before reading). Alpha signal data are obtained on an Envision instrument (Alpha Technology-compatible plate reader). […]

Series [3] in a line: Plasma pharmacokinetics in rats (toxicology studies). The settings on record: rat, in vivo, sc, 0.3 mg/kg. The method, then: Example 11 is administered in a single 3 mg/kg dose to male and female monkeys by SC bolus injection.
The subject of series [4] is rat model of heart failure with reduced ejection fraction (HFrEF). Kind of series: Rat MI model, captopril, Example 10 or combination, echocardiography. Further details: Left Ventricle Diameter (end diastole): unit not given here. It is filed as in vivo. As to the method:
A nonclinical efficacy pharmacology study is conducted in a rat model of heart failure with reduced ejection fraction (HFrEF) to evaluate cardiac function and structure changes after captopril treatment, Example 10 treatment or combination treatment.
The left coronary artery is permanently ligated. All rats are individually housed in a temperature and humidity controlled room and maintained on a 12 hour light/dark cycle. Two to three weeks after surgery, rats undergo transthoracic echocardiography for determination of ejection fraction (EF %) and left ventricle dimensions (LVD) using a Vevo 2100 ultrasound system. Rats are randomized across treatment groups according to EF % and LVD.
Measurements of EF % and LVD are expressed as mean values±standard error (SE). Statistical analysis is performed with JMP® 13 software (SAS Institute, Inc.; Cary, N.C.) and Dunnett's Test is used for statistical comparisons across treatment groups. Statistical significance is accepted at P<0.05.
Three weeks after MI surgery, animals are randomized to 2 treatment groups (Placebo or captopril, 2 g/L in drinking water, ad lib) according to EF % and LVD. Three weeks and four weeks after dosing starts, cardiac function (EF %) and structure (LVD) are evaluated by transthoracic echocardiography. Animals are further randomized to additional groups based on cardiac function (EF %) and structure (LVD) to the following groups: Placebo, Example 10, captopril and Example 10+captopril. Animals in the Example 10 groups receive a single injection on week 4 after the 2nd randomization. Cardiac function (EF %) and structure (LVD) are evaluated on week 5 and 6.

Series [5] concerns rats. Kind of series: Toxicology study in rats, cardiac tissue inspection. Particulars: single SC injection of 0.3 mg/kg.
Setting [6] is: Week 4 (2nd randomization; before the single injection of Example 10).
Where [7] appears, read: Week 5 (single injection of Example 10 on week 4; captopril 2 g/L in drinking water).
Where [8] appears, read: Week 6 (single injection of Example 10 on week 4; captopril 2 g/L in drinking water).

T1 sequence (Q62956 26-1308): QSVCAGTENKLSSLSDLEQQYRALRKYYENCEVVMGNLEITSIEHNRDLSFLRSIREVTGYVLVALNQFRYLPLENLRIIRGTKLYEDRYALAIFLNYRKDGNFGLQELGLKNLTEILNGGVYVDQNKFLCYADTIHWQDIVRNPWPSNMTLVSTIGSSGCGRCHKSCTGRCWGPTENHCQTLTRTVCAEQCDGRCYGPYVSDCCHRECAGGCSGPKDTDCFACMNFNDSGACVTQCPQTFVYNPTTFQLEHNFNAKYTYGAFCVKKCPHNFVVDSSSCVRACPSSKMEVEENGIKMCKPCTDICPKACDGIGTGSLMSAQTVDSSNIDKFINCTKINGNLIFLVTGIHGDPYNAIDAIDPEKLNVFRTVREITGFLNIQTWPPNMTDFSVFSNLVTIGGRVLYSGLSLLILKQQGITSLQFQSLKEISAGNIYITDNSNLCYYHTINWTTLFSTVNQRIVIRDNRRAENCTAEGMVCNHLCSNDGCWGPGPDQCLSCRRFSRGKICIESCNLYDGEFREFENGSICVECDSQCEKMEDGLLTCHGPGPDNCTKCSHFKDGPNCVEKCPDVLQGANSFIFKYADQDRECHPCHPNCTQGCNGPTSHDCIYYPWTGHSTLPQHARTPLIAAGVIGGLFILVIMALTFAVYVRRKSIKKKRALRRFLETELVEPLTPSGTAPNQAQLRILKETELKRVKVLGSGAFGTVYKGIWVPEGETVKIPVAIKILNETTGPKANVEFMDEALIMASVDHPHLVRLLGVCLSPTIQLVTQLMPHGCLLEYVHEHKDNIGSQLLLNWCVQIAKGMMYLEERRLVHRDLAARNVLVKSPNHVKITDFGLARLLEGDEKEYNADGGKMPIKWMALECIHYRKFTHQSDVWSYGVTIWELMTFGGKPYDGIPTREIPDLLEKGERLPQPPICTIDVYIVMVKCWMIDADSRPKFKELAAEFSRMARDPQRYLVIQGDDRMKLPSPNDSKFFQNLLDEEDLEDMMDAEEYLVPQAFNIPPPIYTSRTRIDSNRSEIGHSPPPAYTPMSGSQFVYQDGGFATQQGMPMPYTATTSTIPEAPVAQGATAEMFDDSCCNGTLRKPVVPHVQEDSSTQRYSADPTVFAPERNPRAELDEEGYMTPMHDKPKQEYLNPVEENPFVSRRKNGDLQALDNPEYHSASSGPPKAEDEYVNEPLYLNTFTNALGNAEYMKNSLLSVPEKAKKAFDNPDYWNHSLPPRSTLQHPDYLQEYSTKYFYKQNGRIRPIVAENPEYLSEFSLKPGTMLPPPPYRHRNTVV
T1 sequence (P06494 23-1257 partner): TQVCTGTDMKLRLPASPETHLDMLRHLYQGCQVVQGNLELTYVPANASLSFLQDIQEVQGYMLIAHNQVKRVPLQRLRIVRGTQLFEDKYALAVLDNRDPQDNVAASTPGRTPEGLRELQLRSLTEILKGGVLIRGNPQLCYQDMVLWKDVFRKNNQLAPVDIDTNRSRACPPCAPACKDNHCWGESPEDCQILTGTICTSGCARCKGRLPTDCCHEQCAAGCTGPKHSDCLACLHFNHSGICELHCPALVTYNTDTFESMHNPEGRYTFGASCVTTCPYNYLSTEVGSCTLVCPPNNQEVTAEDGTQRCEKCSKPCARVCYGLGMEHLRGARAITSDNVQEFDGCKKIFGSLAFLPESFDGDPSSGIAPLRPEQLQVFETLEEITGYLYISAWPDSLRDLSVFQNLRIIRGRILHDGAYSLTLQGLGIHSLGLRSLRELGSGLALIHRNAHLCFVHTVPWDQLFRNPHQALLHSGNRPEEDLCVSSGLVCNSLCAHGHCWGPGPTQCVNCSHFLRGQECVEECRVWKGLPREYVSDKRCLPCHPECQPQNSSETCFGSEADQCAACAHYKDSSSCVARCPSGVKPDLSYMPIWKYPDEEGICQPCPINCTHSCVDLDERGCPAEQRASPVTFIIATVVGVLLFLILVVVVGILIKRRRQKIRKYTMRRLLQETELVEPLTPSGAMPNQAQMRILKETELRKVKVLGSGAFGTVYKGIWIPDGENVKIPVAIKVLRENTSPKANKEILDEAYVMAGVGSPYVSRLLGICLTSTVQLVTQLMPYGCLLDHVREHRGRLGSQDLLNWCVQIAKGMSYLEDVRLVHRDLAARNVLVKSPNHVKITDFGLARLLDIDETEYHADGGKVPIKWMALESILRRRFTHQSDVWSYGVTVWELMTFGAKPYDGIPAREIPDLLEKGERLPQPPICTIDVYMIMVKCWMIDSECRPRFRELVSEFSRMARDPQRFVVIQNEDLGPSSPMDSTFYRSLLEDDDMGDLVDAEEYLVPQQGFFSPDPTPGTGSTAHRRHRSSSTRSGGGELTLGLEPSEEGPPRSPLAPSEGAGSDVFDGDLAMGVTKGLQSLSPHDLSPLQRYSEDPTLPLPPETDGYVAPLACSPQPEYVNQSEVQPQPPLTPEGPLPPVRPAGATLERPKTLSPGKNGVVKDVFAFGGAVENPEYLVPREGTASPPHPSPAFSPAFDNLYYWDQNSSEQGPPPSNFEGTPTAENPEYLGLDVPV
T2 sequence (Q62799 20-1339): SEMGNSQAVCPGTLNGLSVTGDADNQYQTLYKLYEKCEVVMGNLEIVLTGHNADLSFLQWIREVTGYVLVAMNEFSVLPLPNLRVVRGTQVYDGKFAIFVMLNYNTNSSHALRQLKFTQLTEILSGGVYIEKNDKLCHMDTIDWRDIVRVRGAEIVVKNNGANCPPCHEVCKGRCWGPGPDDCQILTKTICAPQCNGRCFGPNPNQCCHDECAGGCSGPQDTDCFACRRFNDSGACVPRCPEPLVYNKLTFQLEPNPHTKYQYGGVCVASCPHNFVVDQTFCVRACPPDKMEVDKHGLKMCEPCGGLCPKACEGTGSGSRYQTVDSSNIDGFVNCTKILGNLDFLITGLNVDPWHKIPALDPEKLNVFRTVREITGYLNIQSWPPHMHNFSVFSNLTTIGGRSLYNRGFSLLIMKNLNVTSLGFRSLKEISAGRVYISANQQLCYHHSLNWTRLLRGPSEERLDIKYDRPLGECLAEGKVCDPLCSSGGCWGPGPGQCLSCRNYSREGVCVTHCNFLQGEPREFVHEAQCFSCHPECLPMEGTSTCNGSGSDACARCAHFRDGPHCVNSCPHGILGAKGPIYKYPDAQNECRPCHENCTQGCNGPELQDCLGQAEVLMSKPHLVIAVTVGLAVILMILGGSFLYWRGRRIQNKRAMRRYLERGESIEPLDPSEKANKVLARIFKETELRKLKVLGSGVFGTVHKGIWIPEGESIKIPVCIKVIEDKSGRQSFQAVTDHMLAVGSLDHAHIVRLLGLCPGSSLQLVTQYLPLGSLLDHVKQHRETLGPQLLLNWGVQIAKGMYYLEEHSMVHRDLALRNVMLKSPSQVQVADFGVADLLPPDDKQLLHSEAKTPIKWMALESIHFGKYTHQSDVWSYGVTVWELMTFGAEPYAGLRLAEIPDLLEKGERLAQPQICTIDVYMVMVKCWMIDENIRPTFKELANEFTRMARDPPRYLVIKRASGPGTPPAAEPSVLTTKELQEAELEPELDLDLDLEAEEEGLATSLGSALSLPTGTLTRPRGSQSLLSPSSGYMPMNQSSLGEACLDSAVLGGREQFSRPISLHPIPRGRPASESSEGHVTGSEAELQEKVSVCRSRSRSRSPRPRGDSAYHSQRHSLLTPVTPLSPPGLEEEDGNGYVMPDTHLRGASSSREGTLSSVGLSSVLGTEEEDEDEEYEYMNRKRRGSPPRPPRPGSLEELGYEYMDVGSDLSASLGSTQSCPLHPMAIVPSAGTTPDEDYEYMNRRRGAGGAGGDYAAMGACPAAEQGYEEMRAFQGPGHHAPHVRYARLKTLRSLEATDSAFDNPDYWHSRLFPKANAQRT
T2 sequence (P06494 23-1257 partner): as the sequence (P06494 23-1257 partner) above

For the molecule “WT NRG1: wild type human NRG1; native peptide purchased from Reprokine in Tables 7-9; comparator in the screening assays of Tables 4 and 6”, in series [1], the “% Maximal NRG1 activity” value was found to be 100% and the response was half-maximal at 0.29 ± 0.05 nM (EC50). In series [2], the response was half-maximal at 32 ± 14 nM (EC50).

B1: Example 10: NRG4 D1G/V22Q/E44K, (GGGGS)3 linker, SEQ ID NO: 19, fused to IgG Fc dimer SEQ ID NO: 6 and 7 (protein)
chain 1: GGGGSGGGGSGGGGSGHEEPCGPSHKSFCLNGGLCYQIPTIPSPFCRCVENYTGARCEKVFL
chain 2: ECPPCPAPPVAGPSVFLFPPKPKDTLMISRTPEVTCVVVDVSHEDPEVQFNWYVDGVEVHNAKTKPREEQFNSTFRVVSVLTVVHQDWLNGKEYKCKVSNKGLPAPIEKTISKTKGQPREPQVYTLPPSREEMTKNQVSLWCLVKGFYPSDIAVEWESNGQPENNYKTTPPVLDSDGSFFLYSKLTVDKSRWQQGNVFSCSVMHEALHNHYTQKSLSLSPG
chain 3: ECPPCPAPPVAGPSVFLFPPKPKDTLMISRTPEVTCVVVDVSHEDPEVQFNWYVDGVEVHNAKTKPREEQFNSTFRVVSVLTVVHQDWLNGKEYKCKVSNKGLPAPIEKTISKTKGQPREPQVYTLPPSREEMTKNQVSLSCAVKGFYPSDIAVEWESNGQPENNYKTTPPVLDSDGSFFLVSKLTVDKSRWQQGNVFSCSVMHEALHNHYTQKSLSLSPG
Turning to B1, the “duration of detectable plasma concentrations” value in series [3] was greater than 168 h. The “% Maximal NRG1 activity” value in series [1] is on record as 88 ± 7 (N = 2) %. In addition, the EC50 in series [1] was 0.12 ± 0.04 nM; in series [2] it was greater than 100 nM. For the same molecule, the “Ejection Fraction” value was 33.3% in series [4] (setting [6]), 46.5* % in series [4] (setting [7]) and 46.0* % in series [4] (setting [8]). The “Left Ventricle Diameter (end diastole)” value in series [4] (setting [6]) came to 9.33; in series [4] (setting [7]) it was 9.35; in series [4] (setting [8]), 9.01. The “inspections of tissue (cardiac toxicity)” value in series [5] was “cardiac degeneration and necrosis”.

Usually EC50 stands for the concentration that produces a half-maximal response.
